# Reference: article PMC5241209, “Identification and functional analysis of c.422_423InsT, a novel mutation of the HNF1A gene in a patient with diabetes”
# B1: GLUT2 promoter HNF1A site (dsDNA)
# DNA 1: CTCAGTAAAGATTAACCAT
# DNA 2: ATGGTTAATCTTTACTGAG
# Target: HNF1A (rHNF1A) (UniProt P20823 1-631)
# Assay: EMSA; two complexes, complex 1 more abundant; abolished by 300x unlabeled probe; 12 mM Hepes pH 7.9, 60 mM KCl, 10% glycerol, 1 mM EDTA, 1 mM MgCl2, 1 mM DTT plus DNA mix (1 mM spermidine, 1 mM MgCl2), 1 ug poly(dG/dC)·poly(dG-dC), 4 C; probe 1.29 nM (0.52 nM in mutant titration); 6% PAGE, 0.5x TBE
# Settings: protein: ivt; chain copies: 2; label: 32P 5' end (T4 PNK)
# Sequence of HNF1A (rHNF1A) (P20823 whole entry): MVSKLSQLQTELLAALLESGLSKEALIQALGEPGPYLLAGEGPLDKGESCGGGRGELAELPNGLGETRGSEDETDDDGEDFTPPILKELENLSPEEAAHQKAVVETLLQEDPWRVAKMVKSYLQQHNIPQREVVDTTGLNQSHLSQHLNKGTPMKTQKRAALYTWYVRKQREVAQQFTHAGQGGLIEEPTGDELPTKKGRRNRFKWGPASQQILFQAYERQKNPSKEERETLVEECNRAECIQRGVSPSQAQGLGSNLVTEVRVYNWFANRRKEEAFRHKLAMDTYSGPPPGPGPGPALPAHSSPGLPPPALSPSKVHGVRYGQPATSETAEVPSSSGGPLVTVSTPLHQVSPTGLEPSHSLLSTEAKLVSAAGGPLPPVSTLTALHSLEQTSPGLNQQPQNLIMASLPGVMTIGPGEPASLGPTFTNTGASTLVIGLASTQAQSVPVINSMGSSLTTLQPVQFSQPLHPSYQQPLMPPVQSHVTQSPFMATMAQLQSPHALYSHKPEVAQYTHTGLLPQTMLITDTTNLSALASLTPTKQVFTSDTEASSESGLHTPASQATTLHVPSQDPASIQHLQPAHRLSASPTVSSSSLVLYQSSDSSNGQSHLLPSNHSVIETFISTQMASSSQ
binder,measurement,value
B1,binding result,binds
